Target: T1, TIE1 ectodomain, aa 21-760 (human, UniProt P35590-1 21-760)
T1 sequence: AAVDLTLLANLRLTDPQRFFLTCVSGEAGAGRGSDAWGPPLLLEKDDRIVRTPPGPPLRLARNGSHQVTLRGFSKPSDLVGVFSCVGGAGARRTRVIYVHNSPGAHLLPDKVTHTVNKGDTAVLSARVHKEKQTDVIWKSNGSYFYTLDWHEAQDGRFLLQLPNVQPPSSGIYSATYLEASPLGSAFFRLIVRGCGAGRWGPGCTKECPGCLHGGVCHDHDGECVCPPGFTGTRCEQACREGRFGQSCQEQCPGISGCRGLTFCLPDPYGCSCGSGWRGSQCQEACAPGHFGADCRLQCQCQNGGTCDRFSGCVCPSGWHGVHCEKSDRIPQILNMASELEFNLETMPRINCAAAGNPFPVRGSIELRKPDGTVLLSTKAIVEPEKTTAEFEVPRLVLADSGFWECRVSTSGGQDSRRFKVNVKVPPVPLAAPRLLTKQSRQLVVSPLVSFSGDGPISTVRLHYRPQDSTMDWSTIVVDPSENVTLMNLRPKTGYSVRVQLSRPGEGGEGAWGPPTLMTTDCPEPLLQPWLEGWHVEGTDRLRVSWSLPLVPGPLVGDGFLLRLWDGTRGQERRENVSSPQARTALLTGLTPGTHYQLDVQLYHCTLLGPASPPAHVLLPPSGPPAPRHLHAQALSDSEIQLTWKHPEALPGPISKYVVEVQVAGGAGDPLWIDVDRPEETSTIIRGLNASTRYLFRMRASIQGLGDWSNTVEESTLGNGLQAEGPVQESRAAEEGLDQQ
Assay: SPR

B1: Human SVEP1-Strep II recombinant protein, CCP15 to CCP24, aa 2261-2890 (70 kDa version) (domain or fragment)
chain: PLDCGKPPPIQNGFMKGENFEVGSKVQFFCNEGYELVGDSSWTCQKSGKWNKKSNPKCMPAKCPEPPLLENQLVLKELTTEVGVVTFSCKEGHVLQGPSVLKCLPSQQWNDSFPVCKIVLCTPPPLISFGVPIPSSALHFGSTVKYSCVGGFFLRGNSTTLCQPDGTWSSPLPECVPVECPQPEEIPNGIIDVQGLAYLSTALYTCKPGFELVGNTTTLCGENGHWLGGKPTCKAIECLKPKEILNGKFSYTDLHYGQTVTYSCNRGFRLEGPSALTCLETGDWDVDAPSCNAIHCDSPQPIENGFVEGADYSYGAIIIYSCFPGFQVAGHAMQTCEESGWSSSIPTCMPIDCGLPPHIDFGDCTKLKDDQGYFEQEDDMMEVPYVTPHPPYHLGAVAKTWENTKESPATHSSNFLYGTMVSYTCNPGYELLGNPVLICQEDGTWNGSAPSCISIECDLPTAPENGFLRFTETSMGSAVQYSCKPGHILAGSDLRLCLENRKWSGASPRCEAISCKKPNPVMNGSIKGSNYTYLSTLYYECDPGYVLNGTERRTCQDDKNWDEDEPICIPVDCSSPPVSANGQVRGDEYTFQKEIEYTCNEGFLLEGARSRVCLANGSWSGATPDCVPVR
With B1 the Kd was 62.5 nM.

— publication doi:10.1101/2025.03.17.643633 (bioRxiv, 2025)
